# Experimental data reported in patent US20260035456A1.
# Biological target: CRLR/RAMP3 (human)
substance,measurement,value
hADM(22-52) (from UniProt P35318) (peptide),IC50 (read off the curve),100 µg/mL
